1 molecule from paper PMC6430685 (Nature chemical biology, 2019) can be followed below.

No end group written: not given here. *: point of attachment. FITC = O=C1OC2(c3ccc(O)cc3Oc3cc(O)ccc32)c2ccc(NC(=S)*)cc21; Ahx = NCCCCCC(=O)O

The target in this test is Human full-length (1-192) wild type BAX (human, UniProt Q07812 1-192). The experiment in a line: fluorescence polarisation. For orientation: In fluorescence polarisation assays a small probe gives low polarisation when free and higher when bound to something large.
Sequence of Human full-length (1-192) wild type BAX (Q07812 whole entry): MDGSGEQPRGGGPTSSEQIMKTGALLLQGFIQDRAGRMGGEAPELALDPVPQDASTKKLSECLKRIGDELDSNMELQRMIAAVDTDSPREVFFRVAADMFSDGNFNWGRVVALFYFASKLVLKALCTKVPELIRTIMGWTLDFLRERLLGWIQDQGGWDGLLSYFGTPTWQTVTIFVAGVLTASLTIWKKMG

In the case of {FITC-Ahx}-CEALKKALRRHRFLWQRRQRA [vMIA peptide, FITC-Ahx-CEALKKALRRHRFLWQRRQRA], the binding result is “binds”.
